Source: paper PMC6123645
pKd: −log10 of the molar value.

Target: cBid 126C-DAC (caspase-8 cleaved Bid, single cysteine 126C, labelled with DAC) (UniProt P70444)
Assay: FRET or BRET

## Bax 126C-NBD S184E (phosphomimetic Bax, single cysteine 126C, labelled with NBD) (from UniProt Q07812 1-192) (natural protein)
  pKd: 7.48
